This is an account of results in patent US20220332804A1 (CSL INNOVATION, published 2022).

What all share (experiment): SPR, KD relative to WT C2;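 note: biacore SPR at 37 °C, anti-C2 mAbs captured via immobilised goat anti-human IgG, C2 alanine or serine surface mutants as analytes, 1:1 model fitted, double-referenced sensograms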
The target in test [1] is T1, human C2 F689A (human, UniProt P06681 21-752).
T1 sequence: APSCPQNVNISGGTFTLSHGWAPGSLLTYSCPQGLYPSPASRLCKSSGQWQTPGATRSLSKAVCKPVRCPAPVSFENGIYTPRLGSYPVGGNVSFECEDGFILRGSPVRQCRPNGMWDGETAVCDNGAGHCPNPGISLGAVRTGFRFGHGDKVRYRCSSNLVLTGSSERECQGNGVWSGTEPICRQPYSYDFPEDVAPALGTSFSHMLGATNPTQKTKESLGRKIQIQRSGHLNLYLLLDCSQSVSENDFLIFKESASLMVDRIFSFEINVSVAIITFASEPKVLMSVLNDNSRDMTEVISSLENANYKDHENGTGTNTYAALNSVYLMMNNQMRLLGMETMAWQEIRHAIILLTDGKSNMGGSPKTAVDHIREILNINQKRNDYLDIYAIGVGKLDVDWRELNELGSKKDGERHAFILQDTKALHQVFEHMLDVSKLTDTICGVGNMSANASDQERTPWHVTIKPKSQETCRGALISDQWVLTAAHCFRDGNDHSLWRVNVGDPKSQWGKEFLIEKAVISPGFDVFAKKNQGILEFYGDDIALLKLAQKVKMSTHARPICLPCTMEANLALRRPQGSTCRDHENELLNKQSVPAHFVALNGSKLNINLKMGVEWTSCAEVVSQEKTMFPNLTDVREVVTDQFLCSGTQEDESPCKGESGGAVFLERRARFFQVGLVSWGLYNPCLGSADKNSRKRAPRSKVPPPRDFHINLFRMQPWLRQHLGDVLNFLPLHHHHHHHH

The target in test [2] is T2, human C2 S720A (human, UniProt P06681 21-752).
T2 sequence: T1 sequence with A669F, S700A

Test [3] concerns the target T3, human C2 A444S (human, UniProt P06681 21-752).
T3 sequence: T1 sequence with A424S, A669F

In test [4] the target is T4, human C2 V448A (human, UniProt P06681 21-752).
T4 sequence: T1 sequence with V428A, A669F

Positions count from the first letter of the chain named.

B1: RF16-226 (antibody, human IgG4 S228P, lambda)
heavy: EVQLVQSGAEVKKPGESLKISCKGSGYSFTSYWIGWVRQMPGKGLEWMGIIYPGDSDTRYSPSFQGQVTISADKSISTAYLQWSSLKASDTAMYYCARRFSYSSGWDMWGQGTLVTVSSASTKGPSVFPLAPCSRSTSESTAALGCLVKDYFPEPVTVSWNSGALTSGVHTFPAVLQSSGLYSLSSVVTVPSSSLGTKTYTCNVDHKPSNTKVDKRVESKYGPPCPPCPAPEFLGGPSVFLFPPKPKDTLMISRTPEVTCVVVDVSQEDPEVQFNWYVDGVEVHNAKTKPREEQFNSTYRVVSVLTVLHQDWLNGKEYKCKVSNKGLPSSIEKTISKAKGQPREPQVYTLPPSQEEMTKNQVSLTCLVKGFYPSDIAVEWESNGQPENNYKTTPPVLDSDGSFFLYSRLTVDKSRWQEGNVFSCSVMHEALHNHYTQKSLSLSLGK
light: SYELTQPPSVSVSPGQTARITCSGDALTSKYVAWYQQKSGLAPLLVIYEDTRRPSGIPAKFSGSSSGSVATLTISGAHGDDEADYYCYSTDASGHQRVFGGGTKLTVLSQPKAAPSVTLFPPSSEELQANKATLVCLISDFYPGAVTVAWKADGSPVKAGVETTKPSKQSNNKYAASSYLSLTPEQWKSHRSYSCQVTHEGSTVEKTVAPTECS
notes: pH-dependent anti-C2 antibody from a phage display library; also called WT
For B1, the Fold diff turned out to be 1 fold in test [1], 1 fold in test [2], 2 fold in test [3] and 0 fold in test [4].
